Laboratory results from the supplement of paper PMC9170038.

Test system: K4 kissing-loop RNA reporter
Experiment: apparent KD of K4 kissing-loop reporter; higher = weaker reporter binding
Settings: Eterna round: R107
Protocol: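 RNA-MaP round R107: designed RNA switches with theophylline, tryptophan, arginine or FMN aptamers are transcribed on-chip within common flanks. They are titrated with a labelled K4 kissing-loop RNA reporter in RNA-MaP buffer (100 mM Tris pH 7.5, 80 mM KCl, 4 mM MgCl2), without ligand or with the indicated ligand. Median apparent KD per design.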

[1] = input ligand: theophylline 20 uM
[2] = input ligand: tryptophan 2.4 mM
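Further: bound reporter read as fluorescence of individual clusters on recovered sequencing chips by microscopy, with normalized cluster intensities fitted with a binding model.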

Sequence: AAAAUUGCGGUCGAUAGAACUUUUUGCUUACGAGGACCGGUACGGCCGCCACUCGAGUCAAGUGAUGUUUGAUUUUCUAUUAUUA [JR_ExcTryptoA_Sub014]
- apparent KD of K4 kissing-loop reporter (input ligand: FMN 200 uM): 112 nM
- apparent KD of K4 kissing-loop reporter (input ligand: arginine 13.2 mM): 166 nM
- apparent KD of K4 kissing-loop reporter (input ligand: none): 141 nM
- apparent KD of K4 kissing-loop reporter [1]: 176 nM
- apparent KD of K4 kissing-loop reporter [2]: 98.5 nM

Sequence: UCGACUGUGUCGGCCGCCACUGGUAUAAACGGACUAUAACGACAUGAGUGAUGUUCAUGUUCGUCUAGGACCGGGACACAAUGUA [Tryp B Ex t3]
- apparent KD of K4 kissing-loop reporter (input ligand: FMN 200 uM): 102 nM
- apparent KD of K4 kissing-loop reporter (input ligand: arginine 13.2 mM): 81.8 nM
- apparent KD of K4 kissing-loop reporter (input ligand: none): 96.7 nM
- apparent KD of K4 kissing-loop reporter [1]: 81.7 nM
- apparent KD of K4 kissing-loop reporter [2]: 90 nM

Sequence: UUUCCAGAUAAGUGGGAACACUCCAUAACAGAGGAUAUCAGAGCGCUGAGAAGGCUGUUUAUCAGUGAUGUUGAUAGUGUGGAGU [FMN A SS t2a]
- apparent KD of K4 kissing-loop reporter (input ligand: FMN 200 uM): 171 nM
- apparent KD of K4 kissing-loop reporter (input ligand: arginine 13.2 mM): 660 nM
- apparent KD of K4 kissing-loop reporter (input ligand: none): 671 nM
- apparent KD of K4 kissing-loop reporter [1]: 786 nM
- apparent KD of K4 kissing-loop reporter [2]: 630 nM

Sequence: CGAGAAAGAGCGACUGGCGAUCUGUCUGAAGGAGCGGGUGCUAGCCCAGGUAGGUCGCAGACUUUGACGCCAGUGAUGUUGGCGG [Titidiisxe]
- apparent KD of K4 kissing-loop reporter (input ligand: FMN 200 uM): 210 nM
- apparent KD of K4 kissing-loop reporter (input ligand: arginine 13.2 mM): 175 nM
- apparent KD of K4 kissing-loop reporter (input ligand: none): 222 nM
- apparent KD of K4 kissing-loop reporter [1]: 134 nM
- apparent KD of K4 kissing-loop reporter [2]: 178 nM

Sequence: GGGCGCGGCGCGGCCGCCACUGCGCCUGGGUGCUCGCCGAGUGAUGUUCGUCGGCGGUUGGGUGGCAGGACCGGGUGCCGGCCCG [BDazzled - #17 SS Tryptophan B]
- apparent KD of K4 kissing-loop reporter (input ligand: FMN 200 uM): 1580 nM
- apparent KD of K4 kissing-loop reporter (input ligand: arginine 13.2 mM): 533 nM
- apparent KD of K4 kissing-loop reporter (input ligand: none): 3280 nM
- apparent KD of K4 kissing-loop reporter [1]: 2140 nM
- apparent KD of K4 kissing-loop reporter [2]: 457 nM

Sequence: GUCUGCGUCUCGGCCGCCACUCACUAGUGAUGUUAGUAAGGAGCGACUAGAGAAGUCCAGUUAAUGAGGACCGGGAGAAGCUCUU [Exclusion Tryptophan B GF 3]
- apparent KD of K4 kissing-loop reporter (input ligand: FMN 200 uM): 122 nM
- apparent KD of K4 kissing-loop reporter (input ligand: arginine 13.2 mM): 133 nM
- apparent KD of K4 kissing-loop reporter (input ligand: none): 137 nM
- apparent KD of K4 kissing-loop reporter [1]: 106 nM
- apparent KD of K4 kissing-loop reporter [2]: 117 nM

Sequence: ACGUCACGUAUACUGGUGGUUUCGAUCGAUACCAGUAGCGAGAGUUACCCUUGGCAGCGACAUGAGUGAUGUUUAUGUAUGAUGA [#13 K4 Theophylline A Exclusion]
- apparent KD of K4 kissing-loop reporter (input ligand: FMN 200 uM): 639 nM
- apparent KD of K4 kissing-loop reporter (input ligand: arginine 13.2 mM): 551 nM
- apparent KD of K4 kissing-loop reporter (input ligand: none): 593 nM
- apparent KD of K4 kissing-loop reporter [1]: 560 nM
- apparent KD of K4 kissing-loop reporter [2]: 492 nM

Sequence: GUAUGUGGAAACACGUACUUAUAUCCUAGGCAGGAUAUGCGGAAACGCAGAAGGGCCACCGGCGAGUUUAUCCAGUGAUGUUGGA [Ex FMN A 8]
- apparent KD of K4 kissing-loop reporter (input ligand: FMN 200 uM): 251 nM
- apparent KD of K4 kissing-loop reporter (input ligand: arginine 13.2 mM): 253 nM
- apparent KD of K4 kissing-loop reporter (input ligand: none): 294 nM
- apparent KD of K4 kissing-loop reporter [1]: 271 nM
- apparent KD of K4 kissing-loop reporter [2]: 245 nM

Sequence: AGAUUCGACACGGCCGCCACUCGUGGUGGAUUACCUAGUGUCGAAGUUGAGUGAUGUUCAAGUACGAGGACCGGGUGUUGAGUCU [KL-XTryp-B8 #analogue]
- apparent KD of K4 kissing-loop reporter (input ligand: FMN 200 uM): 420 nM
- apparent KD of K4 kissing-loop reporter (input ligand: arginine 13.2 mM): 310 nM
- apparent KD of K4 kissing-loop reporter (input ligand: none): 370 nM
- apparent KD of K4 kissing-loop reporter [1]: 403 nM
- apparent KD of K4 kissing-loop reporter [2]: 500 nM

Sequence: UGGAGUUGACGAAAAGUCAACUCCAGAGAAGGAGCGGACGAAAGUCCAGGUAGGUCGCUCACUACCAGUGAUGUUGGUACUAAAA
- apparent KD of K4 kissing-loop reporter (input ligand: FMN 200 uM): 167 nM
- apparent KD of K4 kissing-loop reporter (input ligand: arginine 13.2 mM): 190 nM
- apparent KD of K4 kissing-loop reporter (input ligand: none): 204 nM
- apparent KD of K4 kissing-loop reporter [1]: 204 nM
- apparent KD of K4 kissing-loop reporter [2]: 181 nM

Sequence: UGUUAUGUAUCAGGAUAUUAGUGAUGUUUGUUGAUGUUAGUGAUGUUGAUAUUUGUUUUAUGUAUUUAAGAAGGGAUUGAGAUGU [ooilmullin]
- apparent KD of K4 kissing-loop reporter (input ligand: FMN 200 uM): 53.9 nM
- apparent KD of K4 kissing-loop reporter (input ligand: arginine 13.2 mM): 19.2 nM
- apparent KD of K4 kissing-loop reporter (input ligand: none): 38.7 nM
- apparent KD of K4 kissing-loop reporter [1]: 27.8 nM
- apparent KD of K4 kissing-loop reporter [2]: 41.4 nM

Sequence: AAUAAAAGAUGUUUAGGAAAGAAAAUGGAAGGAGCGUGCGAAAGCACAGGUAGGUCGCCAGUGAUGUUGGAACCUGAGCAUCAAA [#SwitchBubble 15 #K4Late]
- apparent KD of K4 kissing-loop reporter (input ligand: FMN 200 uM): 827 nM
- apparent KD of K4 kissing-loop reporter (input ligand: arginine 13.2 mM): 479 nM
- apparent KD of K4 kissing-loop reporter (input ligand: none): 699 nM
- apparent KD of K4 kissing-loop reporter [1]: 677 nM
- apparent KD of K4 kissing-loop reporter [2]: 436 nM

Sequence: GUCUGUGUACUAGGAUAUGGUUGCAGACAGUCAGGUCGCCUUUUCGGCGGCCAGUGAUGUUGGUGGCCAGAAGGAGUACGUGAAG [Biririge]
- apparent KD of K4 kissing-loop reporter (input ligand: FMN 200 uM): 384 nM
- apparent KD of K4 kissing-loop reporter (input ligand: arginine 13.2 mM): 1580 nM
- apparent KD of K4 kissing-loop reporter (input ligand: none): 1110 nM
- apparent KD of K4 kissing-loop reporter [1]: 395 nM
- apparent KD of K4 kissing-loop reporter [2]: 1480 nM

Sequence: AUUUAGACGAGUGAUGUUCGUGAUUUUUCAGAGGAUAUGCGUAAUAGCAGAAGGCUGUAUUUAUAUAUAUUUUGAUUUUUUUAAA [JR_ExcFMNA_Sub009]
- apparent KD of K4 kissing-loop reporter (input ligand: FMN 200 uM): 69.6 nM
- apparent KD of K4 kissing-loop reporter (input ligand: arginine 13.2 mM): 81.6 nM
- apparent KD of K4 kissing-loop reporter (input ligand: none): 59.5 nM
- apparent KD of K4 kissing-loop reporter [1]: 82.8 nM
- apparent KD of K4 kissing-loop reporter [2]: 62.3 nM

Sequence: AACGCUGGUGAAUAACACUAGCGAAAUUCGCGAGGACCGGUACGGCCGCCACUCGCUAACUGCGAGUGAUGUUCGAUAAUAAAAU [Mat - Mod of OpenEnded 3 - D7]
- apparent KD of K4 kissing-loop reporter (input ligand: FMN 200 uM): 174 nM
- apparent KD of K4 kissing-loop reporter (input ligand: arginine 13.2 mM): 125 nM
- apparent KD of K4 kissing-loop reporter (input ligand: none): 197 nM
- apparent KD of K4 kissing-loop reporter [1]: 280 nM
- apparent KD of K4 kissing-loop reporter [2]: 122 nM

Sequence: UUUCCAGAUAAGUGGGAACGCUCCAUAACAGAGGAUAUCAGAGCGCUGAGAAGGCUGUUUUACAGUGAUGUUGUAAGUGUGGAGC [#10 K4 FMN A Same State]
- apparent KD of K4 kissing-loop reporter (input ligand: FMN 200 uM): 158 nM
- apparent KD of K4 kissing-loop reporter (input ligand: arginine 13.2 mM): 272 nM
- apparent KD of K4 kissing-loop reporter (input ligand: none): 299 nM
- apparent KD of K4 kissing-loop reporter [1]: 282 nM
- apparent KD of K4 kissing-loop reporter [2]: 252 nM

Sequence: GGUGCUGUUUGUGCCGCCUUCCUCGUUCCUCGAGGACCGGUACGGCCGCCACUCGAGUGAUGUUUGGGUAGCGAUCCCUGCUAGU [Bdazzled - #13 Exc. Tryptophan A]
- apparent KD of K4 kissing-loop reporter (input ligand: FMN 200 uM): 892 nM
- apparent KD of K4 kissing-loop reporter (input ligand: arginine 13.2 mM): 621 nM
- apparent KD of K4 kissing-loop reporter (input ligand: none): 963 nM
- apparent KD of K4 kissing-loop reporter [1]: 658 nM
- apparent KD of K4 kissing-loop reporter [2]: 799 nM

Sequence: GCCGUACGCAUGGAUACCAGCCGACAUGAUAUUUAGCUGGUGUCGUAGUGAUGUUACGAAGGCCCUUGGCAGCCAUGCGUACGGC
- apparent KD of K4 kissing-loop reporter (input ligand: FMN 200 uM): 83.7 nM
- apparent KD of K4 kissing-loop reporter (input ligand: arginine 13.2 mM): 72.7 nM
- apparent KD of K4 kissing-loop reporter (input ligand: none): 78.2 nM
- apparent KD of K4 kissing-loop reporter [1]: 79.1 nM
- apparent KD of K4 kissing-loop reporter [2]: 78.7 nM

Sequence: AUUAAUUUCAGAGGAUAUCGUUAUUUUUUUAAGUAUAAUCUAUUAUGCAGUGAUGUUGCUAUUAAUCGAGAAGGCUGAUUUAUAA [JR_ExcFMNB_Sub001]
- apparent KD of K4 kissing-loop reporter (input ligand: FMN 200 uM): 114 nM
- apparent KD of K4 kissing-loop reporter (input ligand: arginine 13.2 mM): 141 nM
- apparent KD of K4 kissing-loop reporter (input ligand: none): 79.5 nM
- apparent KD of K4 kissing-loop reporter [1]: 134 nM
- apparent KD of K4 kissing-loop reporter [2]: 78.5 nM

Sequence: AUUUUUUACAGAAGGAGCGUGUUUUAAUAAUCAUGGUGCUUAGCGAGUGAUGUUCGCUUUACACAGGUAGGUCGCUGUUUAUUUA [JR_Nu_ExcArginiB_Sub030]
- apparent KD of K4 kissing-loop reporter (input ligand: FMN 200 uM): 120 nM
- apparent KD of K4 kissing-loop reporter (input ligand: arginine 13.2 mM): 113 nM
- apparent KD of K4 kissing-loop reporter (input ligand: none): 127 nM
- apparent KD of K4 kissing-loop reporter [1]: 112 nM
- apparent KD of K4 kissing-loop reporter [2]: 112 nM

Sequence: GCCGUAGAUGGAAGGAGCGUGGUUAAUGUAAGUGAUGUUUACGAGGUCAACAAUUGACCGCCACAGGUAGGUCGCCAUCUACGGC
- apparent KD of K4 kissing-loop reporter (input ligand: FMN 200 uM): 60.4 nM
- apparent KD of K4 kissing-loop reporter (input ligand: arginine 13.2 mM): 57.4 nM
- apparent KD of K4 kissing-loop reporter (input ligand: none): 57.2 nM
- apparent KD of K4 kissing-loop reporter [1]: 53.1 nM
- apparent KD of K4 kissing-loop reporter [2]: 56.4 nM
